Reference: paper PMC2756588

T1: Abp1, P15891
T1 sequence (P15891 535-592, looked up): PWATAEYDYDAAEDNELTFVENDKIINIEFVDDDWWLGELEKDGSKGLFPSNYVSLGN

T2: Bbc1, P47068
T2 sequence (P47068 1-78, looked up): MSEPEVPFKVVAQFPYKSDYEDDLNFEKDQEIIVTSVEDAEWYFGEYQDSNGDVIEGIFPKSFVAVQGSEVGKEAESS

T3: Boi1, P38041
T3 sequence (P38041 1-86, looked up): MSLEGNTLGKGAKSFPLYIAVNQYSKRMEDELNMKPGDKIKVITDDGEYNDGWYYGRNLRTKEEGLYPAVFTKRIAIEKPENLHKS

T4: Boi2, P39969
T4 sequence (P39969 32-116, looked up): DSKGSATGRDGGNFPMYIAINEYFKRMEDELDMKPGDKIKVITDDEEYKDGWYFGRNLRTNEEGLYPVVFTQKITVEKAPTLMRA

T5: Bud14, P27637
T5 sequence (P27637 247-328, looked up): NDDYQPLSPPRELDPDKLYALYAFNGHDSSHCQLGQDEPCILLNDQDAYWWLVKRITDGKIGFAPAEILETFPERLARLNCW

T6: Bzz1-1, P38822
T6 sequence (P38822 478-572, looked up): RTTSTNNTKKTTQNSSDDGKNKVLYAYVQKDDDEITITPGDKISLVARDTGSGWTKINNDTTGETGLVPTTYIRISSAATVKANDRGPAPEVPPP

T7: Bzz1-2, P38822
T7 sequence (P38822 568-633, looked up): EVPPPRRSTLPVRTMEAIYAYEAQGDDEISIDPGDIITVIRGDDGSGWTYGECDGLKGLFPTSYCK

T8: Cdc25, P04821
T8 sequence (P04821 50-136, looked up): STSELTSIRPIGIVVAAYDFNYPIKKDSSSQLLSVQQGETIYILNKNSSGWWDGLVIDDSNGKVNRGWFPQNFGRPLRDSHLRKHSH

T9: Cyk3, Q07533
T9 sequence (Q07533 1-83, looked up): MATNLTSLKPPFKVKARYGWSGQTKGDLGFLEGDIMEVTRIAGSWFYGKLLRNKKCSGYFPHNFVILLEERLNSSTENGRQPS

T10: Fus1, P11710
T10 sequence (P11710 432-512, looked up): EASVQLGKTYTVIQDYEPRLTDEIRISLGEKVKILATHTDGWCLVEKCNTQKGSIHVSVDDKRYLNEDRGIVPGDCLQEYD

T11: Hof1, Q05080
T11 sequence (Q05080 590-669, looked up): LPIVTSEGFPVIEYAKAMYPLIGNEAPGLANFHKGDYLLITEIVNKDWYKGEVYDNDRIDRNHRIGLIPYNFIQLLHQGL

T12: Hse1, P38753
T12 sequence (P38753 208-285, looked up): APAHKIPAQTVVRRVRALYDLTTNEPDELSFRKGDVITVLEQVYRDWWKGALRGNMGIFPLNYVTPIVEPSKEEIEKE

T13: Lsb1, P53281
T13 sequence (P53281 45-122, looked up): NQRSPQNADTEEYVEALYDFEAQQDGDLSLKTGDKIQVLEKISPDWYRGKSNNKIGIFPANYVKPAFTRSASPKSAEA

T14: Lsb3, P43603
T14 sequence (P43603 385-451, looked up): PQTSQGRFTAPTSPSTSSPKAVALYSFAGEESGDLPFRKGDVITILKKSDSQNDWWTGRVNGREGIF

T15: Lsb4, P32793
T15 sequence (P32793 402-468, looked up): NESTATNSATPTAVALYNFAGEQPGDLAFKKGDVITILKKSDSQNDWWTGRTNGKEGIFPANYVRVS

T16: Myo5, Q04439
T16 sequence (Q04439 1072-1160, looked up): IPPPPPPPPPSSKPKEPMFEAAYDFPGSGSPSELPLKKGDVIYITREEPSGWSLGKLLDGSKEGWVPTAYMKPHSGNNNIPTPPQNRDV

T17: Nbp2, Q12163
T17 sequence (Q12163 103-180, looked up): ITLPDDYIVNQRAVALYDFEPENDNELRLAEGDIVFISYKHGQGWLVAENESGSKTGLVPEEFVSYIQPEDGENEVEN

T18: Pex13, P80667
T18 sequence (P80667 295-386, looked up): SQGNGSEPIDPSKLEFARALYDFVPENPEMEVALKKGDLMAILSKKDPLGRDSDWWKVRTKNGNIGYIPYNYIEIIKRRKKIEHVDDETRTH

T19: Pin3, Q06449
T19 sequence (Q06449 53-122, looked up): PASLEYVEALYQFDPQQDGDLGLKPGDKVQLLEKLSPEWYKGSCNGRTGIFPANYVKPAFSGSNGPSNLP

T20: Sla1-2, P32790
T20 sequence (P32790 60-140, looked up): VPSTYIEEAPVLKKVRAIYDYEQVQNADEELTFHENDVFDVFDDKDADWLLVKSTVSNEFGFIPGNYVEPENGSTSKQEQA

T21: Sla1-3, P32790
T21 sequence (P32790 344-424, looked up): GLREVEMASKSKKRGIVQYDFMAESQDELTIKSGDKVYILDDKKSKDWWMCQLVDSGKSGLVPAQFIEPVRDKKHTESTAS


Experiments:
Assay in all cases: SPOT array
[1] = target: T1, Abp1, P15891; settings: median of control spots 935
[2] = target: T2, Bbc1, P47068; settings: median of control spots 796
[3] = target: Bem1-1, P29366; settings: median of control spots 4282
Sequence of Bem1-1, P29366 (P29366 55-141): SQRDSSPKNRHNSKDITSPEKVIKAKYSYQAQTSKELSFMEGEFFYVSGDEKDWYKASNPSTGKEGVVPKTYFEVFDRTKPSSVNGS

[4] = target: Bem1-2, P29366; settings: median of control spots 4347
Sequence of Bem1-2, P29366 (P29366 139-227): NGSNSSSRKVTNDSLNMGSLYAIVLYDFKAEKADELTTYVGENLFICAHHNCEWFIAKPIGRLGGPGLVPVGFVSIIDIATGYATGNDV

[5] = target: T3, Boi1, P38041; settings: median of control spots 1162
[6] = target: T4, Boi2, P39969; settings: median of control spots 1161
[7] = target: T5, Bud14, P27637; settings: median of control spots 956
[8] = target: T6, Bzz1-1, P38822; settings: median of control spots 4446
[9] = target: T7, Bzz1-2, P38822; settings: median of control spots 4538
[10] = target: T8, Cdc25, P04821; settings: median of control spots 969
[11] = target: T9, Cyk3, Q07533; settings: median of control spots 1451
[12] = target: T10, Fus1, P11710; settings: median of control spots 1200
[13] = target: GST; settings: median of control spots 978
[14] = target: T11, Hof1, Q05080; settings: median of control spots 4086
[15] = target: T12, Hse1, P38753; settings: median of control spots 1727
[16] = target: T13, Lsb1, P53281; settings: median of control spots 388
[17] = target: T14, Lsb3, P43603; settings: median of control spots 406
[18] = target: T15, Lsb4, P32793; settings: median of control spots 397
[19] = target: Myo3, P36006; settings: median of control spots 468
[20] = target: T16, Myo5, Q04439; settings: median of control spots 471
[21] = target: T17, Nbp2, Q12163; settings: median of control spots 357
[22] = target: T18, Pex13, P80667; settings: median of control spots 1341
[23] = target: T19, Pin3, Q06449; settings: median of control spots 2171
[24] = target: Rvs167, P39743; settings: median of control spots 2707
Sequence of Rvs167, P39743 (P39743 419-482): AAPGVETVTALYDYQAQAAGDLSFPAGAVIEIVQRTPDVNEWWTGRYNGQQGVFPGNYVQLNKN

[25] = target: Sho1, P40073; settings: median of control spots 1148
Sequence of Sho1, P40073 (P40073 287-367): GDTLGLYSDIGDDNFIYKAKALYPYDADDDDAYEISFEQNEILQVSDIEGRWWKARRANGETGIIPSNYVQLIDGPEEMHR

[26] = target: T20, Sla1-2, P32790; settings: median of control spots 712
[27] = target: T21, Sla1-3, P32790; settings: median of control spots 5475

| Binder | SPOT intensity [1] | SPOT intensity [2] | SPOT intensity [3] | SPOT intensity [4] | SPOT intensity [5] | SPOT intensity [6] | SPOT intensity [7] | SPOT intensity [8] | SPOT intensity [9] | SPOT intensity [10] | SPOT intensity [11] | SPOT intensity [12] | SPOT intensity [13] | SPOT intensity [14] | SPOT intensity [15] | SPOT intensity [16] | SPOT intensity [17] | SPOT intensity [18] | SPOT intensity [19] | SPOT intensity [20] | further results |
| --- | --- | --- | --- | --- | --- | --- | --- | --- | --- | --- | --- | --- | --- | --- | --- | --- | --- | --- | --- | --- | --- |
| RKRRTHLRLPLIRSN | 75 | 101 | 0 | 0 | 2 | 0 | 23 | 1 | 0 | 59 | 8 | 55 | 4 | 0 | 6 | 3 | 0 | 0 | 5 | 0 | SPOT intensity [21]: 9; SPOT intensity [22]: 0; SPOT intensity [23]: 3; SPOT intensity [24]: 0; SPOT intensity [25]: 47; SPOT intensity [26]: 0; SPOT intensity [27]: 14 |
| KRNRLKILLPFLEQS | 64 | 46 | 0 | 0 | 9 | 3 | 8 | 0 | 0 | 28 | 14 | 169 | 5 | 6 | 25 | 34 | 2 | 0 | 10 | 0 | SPOT intensity [21]: 22; SPOT intensity [22]: 11; SPOT intensity [23]: 17; SPOT intensity [24]: 0; SPOT intensity [25]: 81; SPOT intensity [26]: 0; SPOT intensity [27]: 49 |
| RRARRQMGIPTISQV | 95 | 58 | 3 | 12 | 3 | 1 | 41 | 2 | 25 | 120 | 2 | 1 | 7 | 3 | 11 | 35 | 6 | 16 | 10 | 20 | SPOT intensity [21]: 2; SPOT intensity [22]: 19; SPOT intensity [23]: 33; SPOT intensity [24]: 2; SPOT intensity [25]: 79; SPOT intensity [26]: 15; SPOT intensity [27]: 14 |
| NGRRRPKFRVQLSGN | 209 | 227 | 0 | 6 | 16 | 5 | 23 | 1 | 0 | 87 | 8 | 75 | 3 | 24 | 53 | 114 | 8 | 9 | 30 | 2 | SPOT intensity [21]: 63; SPOT intensity [22]: 5; SPOT intensity [23]: 11; SPOT intensity [24]: 0; SPOT intensity [25]: 155; SPOT intensity [26]: 5; SPOT intensity [27]: 221 |

The next lines start with results.

| SPOT intensity [1] | SPOT intensity [2] | SPOT intensity [3] | SPOT intensity [4] | SPOT intensity [5] | SPOT intensity [6] | SPOT intensity [7] | SPOT intensity [8] | SPOT intensity [9] | SPOT intensity [10] | SPOT intensity [11] | SPOT intensity [12] | SPOT intensity [13] | SPOT intensity [14] | SPOT intensity [15] | SPOT intensity [16] | SPOT intensity [17] | SPOT intensity [18] | SPOT intensity [19] | SPOT intensity [20] | Binder | further results |
| --- | --- | --- | --- | --- | --- | --- | --- | --- | --- | --- | --- | --- | --- | --- | --- | --- | --- | --- | --- | --- | --- |
| 165 | 20 | 0 | 4 | 0 | 1 | 4 | 3 | 7 | 11 | 3 | 8 | 3 | 0 | 5 | 0 | 10 | 4 | 16 | 2 | RRRDFGAPANKRPRR | SPOT intensity [21]: 2; SPOT intensity [22]: 2; SPOT intensity [23]: 9; SPOT intensity [24]: 0; SPOT intensity [25]: 90; SPOT intensity [26]: 0; SPOT intensity [27]: 30 |
| 36 | 133 | 1 | 3 | 2 | 0 | 3 | 0 | 6 | 85 | 1 | 14 | 2 | 8 | 13 | 4 | 0 | 0 | 2 | 0 | RRRIAYPFYPFKKLG | SPOT intensity [21]: 21; SPOT intensity [22]: 5; SPOT intensity [23]: 0; SPOT intensity [24]: 0; SPOT intensity [25]: 25; SPOT intensity [26]: 0; SPOT intensity [27]: 21 |
